A word on the Km: it is the concentration of substrate that gives half-maximal velocity.

Data on 8 proteins can be found in patent US12534748B2, “Engineered beta-subunit of tryptophan synthase for production of non-canonical amino acids” (California Institute of Technology, priority 2015, dated 2026).

Substrate in data set [1]: c1ccc2[nH]ccc2c1
In words: purified protein, by the assay type. The note with it: pH 8.0.

Substrate in data set [2]: N[C@@H](CO)C(=O)O
In words: Tryptophan formation from L-serine and indole, kinetics of wild-type PfTrpB. The class given is biochemical, Pyrococcus furiosus. The note with it: other: 75° C., pH 8.0. As to the method: (§1) Cloning, Expression, and Purification of PfTrpA and PfTrpB. The genes encoding PfTrpB (UNIPROT ID Q8U093) and PfTrpA (UNIPROT ID Q8U094) were obtained as gBlocks and cloned into pET22(b)+ for expression in E. coli BL21 E. cloni EXPRESS cells (Lucigen). Heterologous protein expression of PfTrpA and PfTrpB was performed in Terrific Broth with 100 μg/mL ampicillin (TBamp) and induced with 500 mM IPTG (final concentration 1 mM). PfTrpB was purified via a HisTrap HP column. PfTrpA was purified via a Q HP HiTrap column (flow-through), followed by ammonium sulfate precipitation, and hydrophobic interaction chromatography on a phenyl Sepharose HP HiTrap column (FIG. 3).
(§2) Kinetics and UV-Vis Spectroscopy. Data were collected between 550 and 250 nm on a UV1800 Shimadzu spectrophotometer (Shimadzu) using 0.25-20 μM of enzyme in 200 mM potassium phosphate (pH 8.0) in a quartz cuvette. Samples were incubated at 75° C. for >3 min to ensure a stable temperature was reached. PfTrpB activity (kcat) was measured by monitoring tryptophan formation at 290 nm using Δe290=1.89 mM^−1·cm^−1.
(§3) Selection of the Parent Enzyme, TrpB, from Pyrococcus furiosus. […]

Substrate in data set [3]: c1ccc2[nH]ccc2c1
The description is as above. It is filed as biochemical, Pyrococcus furiosus. The note with it: other: 75° C., pH 8.0. As to the method: as §1, §2, §3

Substrate in data set [4]: N[C@@H](CO)C(=O)O
The data set is described as follows: purified protein, by the assay type. The note with it: other: 75° C., pH 8.0.

Substrate in data set [5]: N[C@@H](CO)C(=O)O
In words: Tryptophan formation from L-serine and indole, kinetics of PfTrpB^4D11. The note with it: other: 75° C., pH 8.0. The class given is biochemical, Pyrococcus furiosus.

Substrate in data set [6]: N[C@@H](CO)C(=O)O
In words: Tryptophan formation from L-serine and indole, kinetics of PfTrpS complex. The class given is biochemical, Pyrococcus furiosus. The note with it: other: 75° C., pH 8.0.

Substrate in data set [7]: N[C@@H](CO)C(=O)O
The data set is described as follows: Tryptophan formation from L-serine and indole, kinetics of PfTrpB^2G9. The class given is biochemical, Pyrococcus furiosus. The note with it: other: 75° C., pH 8.0.

B1: Archaeoglobus fulgidus TrpB variant AfTrpB^0B2 (P25L, E30G, I80V, F285S, T303S, T332A), SEQ ID NO: 22 (Archaeoglobus fulgidus DSM 4304; … (protein)
chain: MRCWLENLSGGRKMKFGEFGGRFVLEVLIGPLEELEKAYDRFKDDEEFKARLEYYLKSYAGRPTPLYFAENLSRELGVKVYLKREDLLHGGAHKINNTIGQALLAKFMGKKRVIAETGAGQHGVATAMAAALLGLEAEIYMGAEDYERQKMNVFRMELLGAKVTAVESGSRTLKDAINEALRDWVESFEHTHYLIGSVVGPHPFPTIVRDFQAVIGKEARRQIIEAEGGMPDAIIACVGGGSNAMGIFHPFLNDDVRLIGVEAGGEGIESGRHSASLTAGSKGVSHGMLSYFLQDEEGMMLDSHSVSAGLDYPGVGPEHAYLKETGRCEYVAVNDEEALRAFKTLSKLEGIIPALESAHAIAYAMKMAEEMQRDDVLVVNLSGRGDKDMDIVRRRLALEHHHHHH
On to B1, for which, in data set [1] (other: 60° C.), the Km is 4.8 µM.

B2: Thermotoga maritima TrpB variant TmTrpB^0B2 (P14L, P19G, I69V, L274S, T292S) (Thermotoga maritima MSB8; I69V/L274S/P14L/P19G/T292S) (protein)
chain: MKGYFGPYGGQYVLEILMGALEELEAAYEEIMKDESFWKEFNDLLRDYAGRPTPLYFARRLSEKYGARVYLKREDLLHTGAHKINNAIGQVLLAKKMGKTRIIAETGAGQHGVATATAAALFGMECVIYMGEEDTIRQKPNVERMKLLGAKVVPVKSGSRTLKDAINEALRDWITNLQTTYYVIGSVVGPHPYPIIVRNFQKVIGEETKKQILEKEGRLPDYIVACVGGGSNAAGIFYPFIDSGVKLIGVEAGGEGLETGKHAASLLKGKIGYSHGSKTFVLQDDWGQVQVSHSVSAGLDYSGVGPEHAYWRETGKVLYDAVTDEEALDAFIELSRLEGIIPALESSHALAYLKKINIKGKVVVVNLSGRGDKDLESVLNHPYVRERIRLEHHHHHH
For B2, the Michaelis constant (Km) in data set [1] (other: 75° C.) worked out at 72 µM.

B3: Pyrococcus furiosus tryptophan synthase beta-subunit PfTrpB, wild type, SEQ ID NO: 2 (Pyrococcus furiosus DSM 3638) (protein)
chain: MWFGEFGGQYVPETLIEPLKELEKAYKRFKDDEEFNRQLNYYLKTWAGRPTPLYYAKRLTEKIGGAKIYLKREDLVHGGAHKTNNAIGQALLAKFMGKTRLIAETGAGQHGVATAMAGALLGMKVDIYMGAEDVERQKMNVFRMKLLGANVIPVNSGSRTLKDAINEALRDWVATFEYTHYLIGSVVGPHPYPTIVRDFQSVIGREAKAQILEAEGQLPDVIVACVGGGSNAMGIFYPFVNDKKVKLVGVEAGGKGLESGKHSASLNAGQVGVFHGMLSYFLQDEEGQIKPTHSIAPGLDYPGVGPEHAYLKKIQRAEYVTVTDEEALKAFHELSRTEGIIPALESAHAVAYAMKLAKEMSRDEIIIVNLSGRGDKDLDIVLKVSGNVLEHHHHHH
In the case of B3, the Michaelis constant (Km) in data set [2] was 1200 ± 100 µM; in data set [3], 77 ± 12 µM.

B4: Pyrococcus furiosus TrpB variant PfTrpB^0B2 (P12L, E17G, I68V, T292S, F274S, T321A), SEQ ID NO: 12 (Pyrococcus furiosus DSM 3638; … (protein)
chain: MWFGEFGGQYVLETLIGPLKELEKAYKRFKDDEEFNRQLNYYLKTWAGRPTPLYYAKRLTEKIGGAKVYLKREDLVHGGAHKTNNAIGQALLAKFMGKTRLIAETGAGQHGVATAMAGALLGMKVDIYMGAEDVERQKMNVFRMKLLGANVIPVNSGSRTLKDAINEALRDWVATFEYTHYLIGSVVGPHPYPTIVRDFQSVIGREAKAQILEAEGQLPDVIVACVGGGSNAMGIFYPFVNDKKVKLVGVEAGGKGLESGKHSASLNAGQVGVSHGMLSYFLQDEEGQIKPSHSIAPGLDYPGVGPEHAYLKKIQRAEYVAVTDEEALKAFHELSRTEGIIPALESAHAVAYAMKLAKEMSRDEIIIVNLSGRGDKDLDIVLKVSGNVLEHHHHHH
B4: the results for the Km in data set [4] and in data set [1] (other: 75° C.) were 700 µM and 8.7 µM, respectively.

B5: Pyrococcus furiosus TrpB variant PfTrpB^4D11 (E17G, I68V, T292S, F274S, T321A), SEQ ID NO: 16 (Pyrococcus furiosus DSM 3638; E17G/F274S/I68V/T292S/T321A) (protein)
chain: MWFGEFGGQYVPETLIGPLKELEKAYKRFKDDEEFNRQLNYYLKTWAGRPTPLYYAKRLTEKIGGAKVYLKREDLVHGGAHKTNNAIGQALLAKFMGKTRLIAETGAGQHGVATAMAGALLGMKVDIYMGAEDVERQKMNVFRMKLLGANVIPVNSGSRTLKDAINEALRDWVATFEYTHYLIGSVVGPHPYPTIVRDFQSVIGREAKAQILEAEGQLPDVIVACVGGGSNAMGIFYPFVNDKKVKLVGVEAGGKGLESGKHSASLNAGQVGVSHGMLSYFLQDEEGQIKPSHSIAPGLDYPGVGPEHAYLKKIQRAEYVAVTDEEALKAFHELSRTEGIIPALESAHAVAYAMKLAKEMSRDEIIIVNLSGRGDKDLDIVLKVSGNVLEHHHHHH
On to B5, for which the Km in data set [5] worked out at 1200 µM.

B6: Pyrococcus furiosus tryptophan synthase complex PfTrpS (PfTrpA + PfTrpB) (Pyrococcus furiosus DSM 3638) (protein)
chain: MWFGEFGGQYVPETLIEPLKELEKAYKRFKDDEEFNRQLNYYLKTWAGRPTPLYYAKRLTEKIGGAKIYLKREDLVHGGAHKTNNAIGQALLAKFMGKTRLIAETGAGQHGVATAMAGALLGMKVDIYMGAEDVERQKMNVFRMKLLGANVIPVNSGSRTLKDAINEALRDWVATFEYTHYLIGSVVGPHPYPTIVRDFQSVIGREAKAQILEAEGQLPDVIVACVGGGSNAMGIFYPFVNDKKVKLVGVEAGGKGLESGKHSASLNAGQVGVFHGMLSYFLQDEEGQIKPTHSIAPGLDYPGVGPEHAYLKKIQRAEYVTVTDEEALKAFHELSRTEGIIPALESAHAVAYAMKLAKEMSRDEIIIVNLSGRGDKDLDIVLKVSGNVLEHHHHHH
Consider B6, for which the Km in data set [6] was determined as 600 µM.

B7: Pyrococcus furiosus TrpB variant M144T N166D (Table 6 prints N166T), SEQ ID NO: 20 (Pyrococcus furiosus DSM 3638; M144T/N166D) (protein)
chain: MWFGEFGGQYVPETLIEPLKELEKAYKRFKDDEEFNRQLNYYLKTWAGRPTPLYYAKRLTEKIGGAKIYLKREDLVHGGAHKTNNAIGQALLAKFMGKTRLIAETGAGQHGVATAMAGALLGMKVDIYMGAEDVERQKMNVFRTKLLGANVIPVNSGSRTLKDAIDEALRDWVATFEYTHYLIGSVVGPHPYPTIVRDFQSVIGREAKAQILEAEGQLPDVIVACVGGGSNAMGIFYPFVNDKKVKLVGVEAGGKGLESGKHSASLNAGQVGVFHGMLSYFLQDEEGQIKPTHSIAPGLDYPGVGPEHAYLKKIQRAEYVTVTDEEALKAFHELSRTEGIIPALESAHAVAYAMKLAKEMSRDEIIIVNLSGRGDKDLDIVLKVSGNVLEHHHHHH
For B7, in data set [1] (other: 75° C.), the Michaelis constant (Km) worked out at 42 µM.

B8: Pyrococcus furiosus TrpB variant PfTrpB^2G9 (T292S), SEQ ID NO: 10 (Pyrococcus furiosus DSM 3638; T292S) (protein)
chain: MWFGEFGGQYVPETLIEPLKELEKAYKRFKDDEEFNRQLNYYLKTWAGRPTPLYYAKRLTEKIGGAKIYLKREDLVHGGAHKTNNAIGQALLAKFMGKTRLIAETGAGQHGVATAMAGALLGMKVDIYMGAEDVERQKMNVFRMKLLGANVIPVNSGSRTLKDAINEALRDWVATFEYTHYLIGSVVGPHPYPTIVRDFQSVIGREAKAQILEAEGQLPDVIVACVGGGSNAMGIFYPFVNDKKVKLVGVEAGGKGLESGKHSASLNAGQVGVFHGMLSYFLQDEEGQIKPSHSIAPGLDYPGVGPEHAYLKKIQRAEYVTVTDEEALKAFHELSRTEGIIPALESAHAVAYAMKLAKEMSRDEIIIVNLSGRGDKDLDIVLKVSGNVLEHHHHHH
B8: the Km in data set [7] was determined as 840 µM.
